# Tested on: Fibroblasts
# Assay: Hyaluronic acid production by cultured fibroblasts (ELISA of culture medium)
# Type: cell-based
# Conditions: fibroblast culture; even at the lowest concentrations tested
# Description: Fibroblasts were seeded into individual wells of a 12-well plate in 1.0 ml of Fibroblast Growth Media (FGM) and incubated overnight at 37±2° C. and 5±1% CO2. On the following day the media was removed via aspiration to eliminate non-adherent cells and replaced with 1.0 ml of fresh FGM. Cells were grown until confluent, with a media change every 48 to 72 hours. Upon reaching confluency the cells were treated for 24 hours with DMEM supplemented with 1.5% FBS to eliminate growth factors from the normal culture media. After this 24-hour wash-out period the cells were treated with the indicated test materials (i.e., milk-derived products containing lactoferrin) at the specified concentrations dissolved in FGM with 1.5% FBS. Dibutyrl cAMP (DBcAMP) at 0.1 mM was used as a positive control. Untreated cells (negative control) received FGM with 1.5% FBS. The cells were incubated for 48 hours and at the end of the incubation period cell culture medium was collected and either stored frozen (−75° C.) or assayed immediately. All testing was done in triplicate.
# A series of hyaluronic acid standards from 50 ng/ml to 3,200 ng/ml was prepared. […] After incubation, 50 μl of stop solution was added to each well and the absorbance was measured at 405 nm using a plate reader. Hyaluronic acid production was expressed as ng/ml and results are shown in Table 1 and the graph of FIG. 1.
molecule,measurement,value
"bovine milk-derived lactoferrin: multi-functional protein found in mammalian milk, primarily in the whey fraction (protein, UniProt P24627 20-708, looked up) Lactotransferrin: APRKNVRWCTISQPEWFKCRRWQWRMKKLGAPSITCVRRAFALECIRAIAEKKADAVTLDGGMVFEAGRDPYKLRPVAAEIYGTKESPQTHYYAVAVVKKGSNFQLDQLQGRKSCHTGLGRSAGWIIPMGILRPYLSWTESLEPLQGAVAKFFSASCVPCIDRQAYPNLCQLCKGEGENQCACSSREPYFGYSGAFKCLQDGAGDVAFVKETTVFENLPEKADRDQYELLCLNNSRAPVDAFKECHLAQVPSHAVVARSVDGKEDLIWKLLSKAQEKFGKNKSRSFQLFGSPPGQRDLLFKDSALGFLRIPSKVDSALYLGSRYLTTLKNLRETAEEVKARYTRVVWCAVGPEEQKKCQQWSQQSGQNVTCATASTTDDCIVLVLKGEADALNLDGGYIYTAGKCGLVPVLAENRKSSKHSSLDCVLRPTEGYLAVAVVKKANEGLTWNSLKDKKSCHTAVDRTAGWNIPMGLIVNQTGSCAFDEFFSQSCAPGADPKSRLCALCAGDDQGLDKCVPNSKEKYYGYTGAFRCLAEDVGDVAFVKNDTVWENTNGESTADWAKNLNREDFRLLCLDGTRKPVTEAQSCHLAVAPNHAVVSRSDRAAHVKQVLLHQQALFGKNGKNCPDKFCLFKSETKNLLFNDNTECLAKLGGRPTYEEYLGTEYVTAIANLKKCSTSPLLEACAFLTR",hyaluronic acid levels compared with untreated fibroblasts,detectable and significant increase
